The labels stand for the following.
B1: Replicative helicase loader DnaC (Escherichia coli (strain K12)), P0AEF0 (parent)
chain: MKNVGDLMQRLQKMMPAHIKPAFKTGEELLAWQKEQGAIRSAALERENRAMKMQRTFNRSGIRPLHQNCSFENYRVECEGQMNALSKARQYVEEFDGNIASFIFSGKPGTGKNHLAAAICNELLLRGKSVLIITVADIMSAMKDTFRNSGTSEEQLLNDLSNVDLLVIDEIGVQTESKYEKVIINQIVDRRSSSKRPTGMLTNSNMEEMTKLLGERVMDRMRLGNSLWVIFNWDSYRSRVTGKEY

In the assay the parent is B1. The conditions noted are these: with dnab_ecoli dnaB.
With MKNVGDLMQRQQKMMPAHIKPAFKTGEELLAWQKEQGAIRSAALERENRAMKMQRTFNRSGIRPLHQNCSFENYRVECEGQMNALSKARQYVEEFDGNIASFIFSGKPGTGKNHLAAAICNELLLRGKSVLIITVADIMSAMKDTFRNSGTSEEQLLNDLSNVDLLVIDEIGVQTESKYEKVIINQIVDRRSSSKRPTGMLTNSNMEEMTKLLGERVMDRMRLGNSLWVIFNWDSYRSRVTGKEY [L11Q], the “effect of a mutation on the interaction” value was “disrupting interaction”.

The values are drawn from IntAct's records for PubMed 20129058.
